Results from the emibetuzumab library of Makowski et al. (2022).

B1: VH:VL chains; a variant is named by its letters at X, in order (parent)
chain 1: QVQLVQSGAEVKKPGASVKVSCKASGYTFTDYXMHWVRQAPGQGLEWMGXVNPNXXXTTYNQKFEGRVTMTTDTSTSTAYMELRSLRSDDTAVYYCARXNXLDXWGQGTTVTVSS
chain 2: DIQMTQSPSSLSASVGDRVTITCSVSSSVSSIYLHWYQQKPGKAPKLLIYSTSNLASGVPSRFSGSGSGTDFTLTISSLQPEDFATYYCQVYSGYPLTFGGGTKVEIK

Variants of: B1
Experiment: yeast display scFab, FACS + sequencing
Method in brief: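 Heavy-chain CDR mutant scFab yeast surface library, FACS-sorted after labelling with biotinylated ovalbumin (260 μg/mL in PBSB, 3 h, room temperature) or soluble membrane proteins (130 μg/mL, 20 min on ice), plus anti-Myc. Gates collected the top 25% and bottom 10% of binders, and samples from two replicates were deep sequenced. Non-specific binding call: a sequence was positive if found in ≥3 of 4 positive samples (membrane protein and ovalbumin pooled) and no negatives, and negative by the converse rule.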

Variant | non-specific binding call
YKGRGALS | binds
YKGRGALY | binds
YKGRGASA | binds
YKGRGASD | binds
YKGRGASS | binds
VKGRGASV | binds
YKGRGASV | binds
FKGRGAVD | binds
YKGRGAVS | binds
SKGRGAVY | binds
FKGRGAVY | binds
VKGRGAWA | binds
SKGRGAWD | binds
FKGRGAWS | binds
SKGRGAWV | binds
FKGRGAWV | binds
VKGRGAWY | binds
VKGRGDAA | no binding
YKGRGDAD | binds
AKGRGDGA | no binding
YKGRGDGD | no binding
FKGRGDGS | binds
YKGRGDGY | binds
VKGRGDSF | no binding
YKGRGDWY | binds

Variant | non-specific binding call
VKGRGFAA | binds
YKGRGFAY | binds
YKGRGFGD | binds
FKGRGFGV | binds
YKGRGFSD | binds
FKGRGFVV | binds
YKGRGFVY | binds
YKGRGFWA | binds
VKGRGFWY | binds
FKGRGSAA | binds
SKGRGSAA | binds
VKGRGSAA | binds
FKGRGSAD | binds
VKGRGSAD | binds
YKGRGSAF | binds
VKGRGSAY | binds
YKGRGSAY | binds
VKGRGSGS | binds
FKGRGSGV | binds
FKGRGSGY | binds
FKGRGSLA | binds
YKGRGSLA | binds
VKGRGSLF | binds
YKGRGSLF | binds
FKGRGSLS | binds

Variant | non-specific binding call
YKGRGSLV | binds
FKGRGSLY | binds
YKGRGSLY | binds
DKGRGSSA | no binding
VKGRGSSF | no binding
FKGRGSSS | binds
YKGRGSVD | binds
VKGRGSVF | no binding
YKGRGSVY | binds
VKGRGSWA | binds
YKGRGSWF | binds
VKGRGSWS | binds
YKGRGSWS | binds
VKGRGSWY | binds
VKGRGVGA | binds
YKGRGVGA | binds
YKGRGVGD | binds
YKGRGVGV | binds
YKGRGVGY | binds
VKGRGVGY | binds
VKGRGVVD | binds
YKGRGVVV | binds
FKGRGVWV | binds
YKGRGYAA | binds
YKGRGYAD | binds

Variant | non-specific binding call
YKGRGYAV | binds
VKGRGYGA | binds
YKGRGYGA | binds
YKGRGYGD | binds
YKGRGYGF | binds
YKGRGYLV | no binding
YKGRGYSY | binds
YKGRGYVA | binds
YKGRGYWY | binds
YKGRSAAA | binds
DKGRSAGD | no binding
YKGRSASV | no binding
FKGRSASY | binds
YKGRSAVY | binds
VKGRSDAS | no binding
SKGRSDAV | no binding
SKGRSDGA | no binding
VKGRSDGV | no binding
SKGRSDGV | no binding
VKGRSDSA | no binding
SKGRSDVF | no binding
SKGRSDVS | no binding
SKGRSDVV | no binding
SKGRSDVY | no binding
VKGRSDVY | no binding

Variant | non-specific binding call
VKGRSDWV | no binding
VKGRSFLV | binds
SKGRSSLA | no binding
YKGRSSSS | binds
SKGRSSWS | binds
DKGRSVGV | no binding
VKGRSVGY | binds
VKGRTSVY | no binding
AKGTASGD | binds
YKGTDAWY | no binding
VKGTDAWY | no binding
SKGTDDWV | no binding
FKGTDSSD | binds
DKGTDVGA | binds
VKGTGFLD | binds
VKGTGVAY | binds
VKKEDAGD | no binding
VKKEDDVV | no binding
DKKEDSAD | no binding
SKKEDSAD | no binding
FKKEGYGD | binds
YKKESDSY | no binding
VKKESDSY | no binding
VKKESSGF | binds
